Assays:
Assay in all cases: cell-based or functional assay
[1] = target: HIV-1 Env of pseudovirus 928-28 (HIV-1)
[2] = target: HIV-1 Env of pseudovirus ZM53M.PB12 (HIV-1)
[3] = target: HIV-1 Env of pseudovirus 231966.c02 (HIV-1)
[4] = target: HIV-1 Env of pseudovirus Ce0682_E4 (HIV-1)
[5] = target: HIV-1 Env of pseudovirus P1981_C5_3 (HIV-1)
[6] = target: HIV-1 Env of pseudovirus CAAN5342.A2 (HIV-1)
[7] = target: HIV-1 Env of pseudovirus 3365.v2.c2 (HIV-1)
[8] = target: HIV-1 Env of pseudovirus MS208.A1 (HIV-1)
[9] = target: HIV-1 Env of pseudovirus Ce2010_F5 (HIV-1)
[10] = target: HIV-1 Env of pseudovirus BJOX009000.02.4 (HIV-1)
[11] = target: HIV-1 Env of pseudovirus X1254_c3 (HIV-1)
[12] = target: HIV-1 Env of pseudovirus RHPA4259.7 (HIV-1)
[13] = target: HIV-1 Env of pseudovirus 211-9 (HIV-1)
[14] = target: HIV-1 Env of pseudovirus 191955_A11 (HIV-1)
[15] = target: HIV-1 Env of pseudovirus BJOX028000.10.3 (HIV-1)
[16] = target: HIV-1 Env of pseudovirus 0815.v3.c3 (HIV-1)
[17] = target: HIV-1 Env of pseudovirus 6952.v1.c20 (HIV-1)
[18] = target: HIV-1 Env of pseudovirus 1012_11_TC21_3257 (HIV-1)
[19] = target: HIV-1 Env of pseudovirus 235-47 (HIV-1)
[20] = target: HIV-1 Env of pseudovirus 263-8 (HIV-1)
[21] = target: HIV-1 Env of pseudovirus ZM109F.PB4 (HIV-1)
[22] = target: HIV-1 Env of pseudovirus HIV-001428-2.42 (HIV-1)
[23] = target: HIV-1 Env of pseudovirus T250-4 (HIV-1)
[24] = target: HIV-1 Env of pseudovirus 3016.v5.c45 (HIV-1)
[25] = target: HIV-1 Env of pseudovirus 3103.v3.c10 (HIV-1)
[26] = target: HIV-1 Env of pseudovirus T257-31 (HIV-1)
[27] = target: HIV-1 Env of pseudovirus Ce2060_G9 (HIV-1)
[28] = target: HIV-1 Env of pseudovirus C1080.c03 (HIV-1)
[29] = target: HIV-1 Env of pseudovirus 6240_08_TA5_4622 (HIV-1)
[30] = target: HIV-1 Env of pseudovirus TRJO4551.58 (HIV-1)
[31] = target: HIV-1 Env of pseudovirus Ce1176_A3 (HIV-1)
[32] = target: HIV-1 Env of pseudovirus CNE21 (HIV-1)
[33] = target: HIV-1 Env of pseudovirus 9004SS_A3_4 (HIV-1)
[34] = target: HIV-1 Env of pseudovirus 7030102001E5(Rev-) (HIV-1)
[35] = target: HIV-1 Env of pseudovirus HIV-16055-2.3 (HIV-1)
[36] = target: HIV-1 Env of pseudovirus ZM197M.PB7 (HIV-1)
[37] = target: HIV-1 Env of pseudovirus X1632_S2_B10 (HIV-1)

N49P6 (antibody)
IC50 [1]: 1.24 µg/mL
IC80 [1]: 5.6 µg/mL
MPI [1]: 99
IC50 [2]: 0.538 µg/mL
IC80 [2]: 1.71 µg/mL
MPI [2]: 100
IC50 [3]: 0.339 µg/mL
IC80 [3]: 1.62 µg/mL
MPI [3]: 100
IC50 [4]: 0.095 µg/mL
IC80 [4]: 0.315 µg/mL
MPI [4]: 100
IC50 [5]: 0.31 µg/mL
IC80 [5]: 0.708 µg/mL
MPI [5]: 100
IC50 [6]: 0.657 µg/mL
IC80 [6]: 1.83 µg/mL
MPI [6]: 100
IC50 [7]: 0.129 µg/mL
IC80 [7]: 0.347 µg/mL
MPI [7]: 100
IC50 [8]: 0.11 µg/mL
IC80 [8]: 0.436 µg/mL
MPI [8]: 100
IC50 [9]: 0.124 µg/mL
IC80 [9]: 0.749 µg/mL
MPI [9]: 100
IC50 [10]: 0.32 µg/mL
IC80 [10]: 1.46 µg/mL
MPI [10]: 100
IC50 [11]: 15.7 µg/mL
IC80 [11]: 34.2 µg/mL
MPI [11]: 91
IC50 [12]: 0.117 µg/mL
IC80 [12]: 0.443 µg/mL
MPI [12]: 100
IC50 [13]: 8.49 µg/mL
IC80 [13]: 27.7 µg/mL
MPI [13]: 93
IC50 [14]: 0.124 µg/mL
IC80 [14]: 0.344 µg/mL
MPI [14]: 100
IC50 [15]: 6.68 µg/mL
IC80 [15]: > 50 µg/mL
MPI [15]: 77
IC50 [16]: 0.194 µg/mL
IC80 [16]: 1.25 µg/mL
MPI [16]: 100
IC50 [17]: 16.9 µg/mL
IC80 [17]: > 50 µg/mL
MPI [17]: 78
IC50 [18]: 0.137 µg/mL
IC80 [18]: 0.502 µg/mL
MPI [18]: 100
IC50 [19]: 13 µg/mL
IC80 [19]: 46.4 µg/mL
MPI [19]: 82
IC50 [20]: 0.116 µg/mL
IC80 [20]: 0.438 µg/mL
MPI [20]: 100
IC50 [21]: 0.084 µg/mL
IC80 [21]: 0.29 µg/mL
MPI [21]: 99
IC50 [22]: 0.016 µg/mL
IC80 [22]: 0.05 µg/mL
MPI [22]: 100
IC50 [23]: 21.9 µg/mL
IC80 [23]: > 50 µg/mL
MPI [23]: 68
IC50 [24]: 21.7 µg/mL
IC80 [24]: > 50 µg/mL
MPI [24]: 72
IC50 [25]: 0.582 µg/mL
IC80 [25]: 1.57 µg/mL
MPI [25]: 100
IC50 [26]: 0.147 µg/mL
IC80 [26]: 0.535 µg/mL
MPI [26]: 100
IC50 [27]: 0.888 µg/mL
IC80 [27]: 4.81 µg/mL
MPI [27]: 100
IC50 [28]: 0.181 µg/mL
IC80 [28]: 0.661 µg/mL
MPI [28]: 100
IC50 [29]: 0.567 µg/mL
IC80 [29]: 1.76 µg/mL
MPI [29]: 100
IC50 [30]: 0.255 µg/mL
IC80 [30]: 0.874 µg/mL
MPI [30]: 100
IC50 [31]: 0.594 µg/mL
IC80 [31]: 2.11 µg/mL
MPI [31]: 100
IC50 [32]: 0.832 µg/mL
IC80 [32]: 6.52 µg/mL
MPI [32]: 99
IC50 [33]: 0.181 µg/mL
IC80 [33]: 0.817 µg/mL
MPI [33]: 100
IC50 [34]: 0.354 µg/mL
IC80 [34]: 1.17 µg/mL
MPI [34]: 100
IC50 [35]: 0.117 µg/mL
IC80 [35]: 0.586 µg/mL
MPI [35]: 100
IC50 [36]: 3 µg/mL
IC80 [36]: 12.4 µg/mL
MPI [36]: 98
IC50 [37]: 23.1 µg/mL
IC80 [37]: > 50 µg/mL
MPI [37]: 69

N49P18.1 (antibody)
IC50 [1]: 22.7 µg/mL
IC80 [1]: > 50 µg/mL
MPI [1]: 71
IC50 [3]: 29.9 µg/mL
IC80 [3]: > 50 µg/mL
MPI [3]: 67
IC50 [5]: 19.3 µg/mL
IC80 [5]: 45.4 µg/mL
MPI [5]: 83
IC50 [7]: 4.72 µg/mL
IC80 [7]: 14.3 µg/mL
MPI [7]: 99
IC50 [10]: 0.418 µg/mL
IC80 [10]: 1.43 µg/mL
MPI [10]: 100
IC50 [11]: 24.8 µg/mL
IC80 [11]: > 50 µg/mL
MPI [11]: 61
IC50 [13]: 18.3 µg/mL
IC80 [13]: > 50 µg/mL
MPI [13]: 73
IC50 [14]: > 50 µg/mL
IC80 [14]: > 50 µg/mL
MPI [14]: 33
IC50 [15]: 34 µg/mL
IC80 [15]: > 50 µg/mL
MPI [15]: 64
IC50 [16]: 0.741 µg/mL
IC80 [16]: 8.45 µg/mL
MPI [16]: 99
IC50 [17]: > 50 µg/mL
IC80 [17]: > 50 µg/mL
MPI [17]: 30
IC50 [19]: 23 µg/mL
IC80 [19]: > 50 µg/mL
MPI [19]: 66
IC50 [20]: 3.96 µg/mL
IC80 [20]: 41 µg/mL
MPI [20]: 90
IC50 [23]: 4.86 µg/mL
IC80 [23]: 15.1 µg/mL
MPI [23]: 94
IC50 [24]: > 50 µg/mL
IC80 [24]: > 50 µg/mL
MPI [24]: 49
IC50 [25]: 8.56 µg/mL
IC80 [25]: 32.4 µg/mL
MPI [25]: 93
IC50 [26]: > 50 µg/mL
IC80 [26]: > 50 µg/mL
MPI [26]: 48
IC50 [28]: > 50 µg/mL
IC80 [28]: > 50 µg/mL
MPI [28]: 50
IC50 [33]: 3.02 µg/mL
IC80 [33]: 13.9 µg/mL
MPI [33]: 99
IC50 [37]: > 50 µg/mL
IC80 [37]: > 50 µg/mL
MPI [37]: 19

N49P11 (antibody)
IC50 [1]: 5.46 µg/mL
IC80 [1]: 25 µg/mL
MPI [1]: 100
IC50 [3]: 4.31 µg/mL
IC80 [3]: 16 µg/mL
MPI [3]: 100
IC50 [5]: 5.29 µg/mL
IC80 [5]: 16.5 µg/mL
MPI [5]: 100
IC50 [7]: 0.064 µg/mL
IC80 [7]: 0.452 µg/mL
MPI [7]: 100
IC50 [10]: 2.84 µg/mL
IC80 [10]: 10.6 µg/mL
MPI [10]: 100
IC50 [11]: 5.99 µg/mL
IC80 [11]: 20.7 µg/mL
MPI [11]: 100
IC50 [13]: 5.67 µg/mL
IC80 [13]: 18.2 µg/mL
MPI [13]: 100
IC50 [14]: 2.74 µg/mL
IC80 [14]: 15.3 µg/mL
MPI [14]: 100
IC50 [15]: 5.33 µg/mL
IC80 [15]: 46.7 µg/mL
MPI [15]: 100
IC50 [16]: 0.106 µg/mL
IC80 [16]: 0.372 µg/mL
MPI [16]: 100
IC50 [17]: 6.57 µg/mL
IC80 [17]: 22.7 µg/mL
MPI [17]: 100
IC50 [19]: 3.88 µg/mL
IC80 [19]: 21.2 µg/mL
MPI [19]: 100
IC50 [20]: 0.064 µg/mL
IC80 [20]: 0.259 µg/mL
MPI [20]: 100
IC50 [23]: 6.28 µg/mL
IC80 [23]: 25.6 µg/mL
MPI [23]: 100
IC50 [24]: 8.75 µg/mL
IC80 [24]: 21.4 µg/mL
MPI [24]: 100
IC50 [25]: 12.6 µg/mL
IC80 [25]: 26.4 µg/mL
MPI [25]: 100
IC50 [26]: 0.7 µg/mL
IC80 [26]: 2.9 µg/mL
MPI [26]: 100
IC50 [28]: 0.162 µg/mL
IC80 [28]: 1.45 µg/mL
MPI [28]: 100
IC50 [33]: 0.296 µg/mL
IC80 [33]: 3.24 µg/mL
MPI [33]: 100
IC50 [37]: 9.73 µg/mL
IC80 [37]: 26.1 µg/mL
MPI [37]: 100

— patent publication US20230002480A1
